“Also recorded” adds a separate entry of the source.
How the values were obtained:
[1] = test system: wt mice; test: Long-term isoproterenol treatment of wt mice; format: in vivo, mouse
Description: (§1) Wildtype (C57BL/6J) and mutant (C57BL/6J A^y/a, C57BL/6J ob/ob) mice were obtained from the Jackson laboratory and adrenal medullectomized mice from Harlan Tecklad laboratory. Dbh−/− mice were rescued as previously described (Thomas et al., 1998, Neurochem 70:2468-2476). Isoproterenol (Sigma) was injected intraperitoneally (ip) once daily for 6 weeks at 30 mg/kg (wt) or 3 mg/kg (ob/ob). Propranolol (Sigma) was added to the drinking water at a concentration of 0.5 g/l. For ICV infusion, a 28-gauge cannula (Brain infusion kit II, Alza) was implanted into the third ventricle as previously described infusing human leptin (Sigma) at 8 ng/hr or MT-II at 125 ng/hr (Phoenix Pharmaceuticals) for 28 days (see, e.g., Ducy et al., 2000, Cell 100: 197-207). The cannula was connected to an osmotic pump (Alza) placed in the dorsal subcutaneous space of the animal. For parabiosis longitudinal incisions were made in the skin and in the peritoneal cavity along one side on each mouse. Edges of the incisions were connected by suture to induce coelioanastomosis. Cross-circulation was quantified by injecting 1 ml/kg 0.25% Evans blue into the tail vein of one mouse of the parabiosed pair. After 30 min. blood was collected from both mice by retroorbital bleeding and the blood exchange rate was calculated according to standard techniques (see, e.g., Harris & Martin, 1984, Am J Physiol 247:R380-386). […] Two weeks after parabiosis a pump delivering leptin ICV in one animal of each pair was implanted. For GTG lesioning, 4-week-old C57BL/6J mice were given a single ip injection of either PBS or GTG (0.5 mg/g). For MSG lesioning, 2 day-old C57BL/6J pups were injected daily subcutaneously with either PBS or MSG (2 mg/g) for 10 days.
Histological analyses were performed on undecalcified sections stained by von Kossa and counterstained by von Gieson (see, e.g., Ducy et al., 2000, Cell 100:197-207). Static and dynamic histomorphometric analyses were performed according to standard protocols (see, e.g., Parfitt et al., 1987, J Bone Miner Res 6:595-610) using the Osteomeasure Analysis System (Osteometrics, Atlanta). Six to 12 animals were analyzed for each group. Statistical significance was assessed by Student's t test.
To address this point one month-old ob/ob mice were treated for 6 weeks with the β-adrenergic agonist isoproterenol or vehicle. […] To determine the role of the SNS in animals that have none of the metabolic and neurological abnormalities caused by leptin deficiency, this experiment was repeated in wt mice.

[2] = test system: ob/ob mice; test: Intracerebroventricular infusion of leptin in ob/ob mice; format: in vivo, mouse
Description: Lastly, the issue of whether leptin binding to its hypothalamic receptor could correct the high bone mass phenotype of the ob/ob mice as it can rescue their obesity phenotype was addressed. To that end pumps delivering either PBS or leptin (8 ng/hr) in the third ventricle of ob/ob mice were inserted as follows. Animals were anesthetized with avertin and placed on a stereotaxic instrument (Stoelting). The Calabria was exposed and a 0.7 mm hole was drilled upon bregma. A 28-gauge cannula (Brain infusion kit U, Alza) was implanted into the third ventricle according to the following coordinates: midline, −0.3 AP, 3 mm ventral (0 point bregma). The cannula was secured to the skull with cyanoacrylate, and attached with Tygon tubing to an osmotic pump (Alza) placed in the dorsal subcutaneous space of the animal. The rate of delivery was 0.25 μl/hour (8 ng/hr of leptin (Sigma)) or PBS for 28 days. The dosage has been previously shown to have no effect when administered systemically (Halaas et al., 1997, Proc Nati Acad Sci USA 94:8878-8883). To be as close as possible to the biological situation of the ob/ob mice, the animals in which pumps were inserted were ovariectomized to avoid any artificial increase in bone mass due to the correction of their hypogonadism. The pumps were left in place for 28 days and double-labeling with calcein was performed to measure the bone formation parameters.

[3] = test system: MSG-lesioned ob/ob mice; test: Leptin ICV infusion in MSG-lesioned ob/ob mice; format: in vivo, mouse
Description: Wildtype (C57BL/6J) and mutant (C57BL/6J A^y/a, C57BL/6J ob/ob) mice were obtained from the Jackson laboratory and adrenal medullectomized mice from Harlan Tecklad laboratory. Dbh−/− mice were rescued as previously described (Thomas et al., 1998, Neurochem 70:2468-2476). Isoproterenol (Sigma) was injected intraperitoneally (ip) once daily for 6 weeks at 30 mg/kg (wt) or 3 mg/kg (ob/ob). Propranolol (Sigma) was added to the drinking water at a concentration of 0.5 g/l. For ICV infusion, a 28-gauge cannula (Brain infusion kit II, Alza) was implanted into the third ventricle as previously described infusing human leptin (Sigma) at 8 ng/hr or MT-II at 125 ng/hr (Phoenix Pharmaceuticals) for 28 days (see, e.g., Ducy et al., 2000, Cell 100: 197-207). The cannula was connected to an osmotic pump (Alza) placed in the dorsal subcutaneous space of the animal. For parabiosis longitudinal incisions were made in the skin and in the peritoneal cavity along one side on each mouse. Edges of the incisions were connected by suture to induce coelioanastomosis. Cross-circulation was quantified by injecting 1 ml/kg 0.25% Evans blue into the tail vein of one mouse of the parabiosed pair. After 30 min. blood was collected from both mice by retroorbital bleeding and the blood exchange rate was calculated according to standard techniques (see, e.g., Harris & Martin, 1984, Am J Physiol 247:R380-386). […]

[4] = test system: parabiosed ob/ob mice; test: Cross circulation (parabiosis) between ob/ob mice with leptin ICV in one mouse of each pair; format: in vivo
Source text: Cross Circulation (Parabiosis) Procedure. Following anesthesia by standard procedures, the surgery is made under adequate anesthesia and aseptic techniques. A longitudinal incision is made along one side on each mouse and skin is loosened from connective tissue. The ventral edges of the incision are joined by suture. Abdominal cavity of each mouse is opened and connected to make coelio anastomosis. Finally, the dorsal edges of the skin incision are joined. Parabiosed mice are housed in separate cages subsequently. Mice used for this procedure are syngenic to avoid immune reactions. Bone histology and histomorphometry are performed at the end of the treatment period to determine bone mass.
To determine whether the signal(s) emanating from the brain and controlling bone formation was/were of humoral nature, cross circulation (parabiosis) experiments were performed between ob/ob mice. Four weeks after establishing and verifying the cross circulation, a pump delivering leptin ICV (8 ng/h) was installed in one mouse of each parabiosed pair. […] Body weight and bone histology of the ipsilateral and contralateral mouse of each pair was analyzed four weeks later, reasoning that if leptin was using humoral means to control body weight and bone mass, both mice in each pair should respond equally well to the leptin infusion.
as §1
The next question was whether the signal(s) emanating from the hypothalamic antiosteogenic network was/were of humoral or of neuronal nature. To that end, cross-circulation (parabiosis) experiments between ob/ob animals (that have no circulating leptin) were relied upon. […] Four weeks later the animals were sacrificed and analyzed.

[5] = ob/ob mice, ICV 8 ng/hr, 28 days
[6] = contralateral parabiosed partner
[7] = ipsilateral mouse, 8 ng/h, four weeks

With `CC(C)NCC(O)c1ccc(O)c(O)c1` (centres unmarked) [isoproterenol] the “expression of uncoupling protein 1 (Ucp1) in brown adipose tissue” value [1] was “increased”, the bone mass ([1]; 30 mg/kg ip once daily, 6 weeks) was “significantly decreased” and the body weight ([1]; 30 mg/kg, 6 weeks) was “without affecting”. The bone formation rate ([1]; 30 mg/kg, 6 weeks) was “significantly decreased” and the osteoblast number ([1]; 30 mg/kg, 6 weeks) was “significantly decreased”.

B1: leptin: polypeptide hormone, product of the ob gene; human leptin (Sigma) infused ICV (protein)
chain: VPIQKVQDDTKTLIKTIVTRINDISHTQSVSAKQRVTGLDFIPGLHPILSLSKMDQTLAVYQQVLTSLPSQNVLQIANDLENLRDLLHLLAFSKSCSLPQTSGLQKPESLDGVLEASLYSTEVVALSRLQGSLQDILQQLDVSPEC
With B1 the “leptin in the serum (radioimmunoassay)” value ([2]; ob/ob mice after ICV infusion) was “No leptin in the serum of these animals was detected”, the Bone Volume [2, 5] was “significantly decreased” and the bone formation rates [2, 5] was “significantly decreased”. For the same molecule, the trabeculae thickness [2, 5] was “significantly decreased”, the “bone appearance (classical histology)” value ([2]; ovariectomized ob/ob mice, third ventricle, 8 ng/hr, 28 days, vs PBS) was “regained a normal appearance” and the Bone Volume [3] was “decreases”. The body weight [3] was “does not affect”, the “body weight loss in the contralateral mouse” value [4, 6] was “never observed” and the “bone mass / bone volume of the contralateral mouse” value [4, 6] was “never observed; also recorded: no modification”. For the same molecule, the “body weight of the ob/ob mouse receiving leptin ICV” value [4, 7] was “dropped considerably”, the “bone mass / bone volume of the ob/ob mouse receiving leptin ICV” value [4, 7] was “dropped considerably; also recorded: dropped significantly” and the “leptin in plasma / serum (leakage into the general circulation)” value ([4]; parabiosed ob/ob mice after ICV infusion) was “absence of measurable leptin”.
